{"source": "paper doi:10.1101/528042", "about": "(bioRxiv, 2019)", "proteins": {"B1": {"name": "S-OPA1 (short S1 isoform of splice form 1 human OPA1), wild type (natural protein, UniProt O60313 196-960, looked up)", "chain": "TDRGSESDKHFRKVSDKEKIDQLQEELLHTQLKYQRILERLEKENKELRKLVLQKDDKGIHHRKLKKSLIDMYSEVLDVLSDYDASYNTQDHLPRVVVVGDQSAGKTSVLEMIAQARIFPRGSGEMMTRSPVKVTLSEGPHHVALFKDSSREFDLTKEEDLAALRHEIELRMRKNVKEGCTVSPETISLNVKGPGLQRMVLVDLPGVINTVTSGMAPDTKETIFSISKAYMQNPNAIILCIQDGSVDAERSIVTDLVSQMDPHGRRTIFVLTKVDLAEKNVASPSRIQQIIEGKLFPMKALGYFAVVTGKGNSSESIEAIREYEEEFFQNSKLLKTSMLKAHQVTTRNLSLAVSDCFWKMVRESVEQQADSFKATRFNLETEWKNNYPRLRELDRNELFEKAKNEILDEVISLSQVTPKHWEEILQQSLWERVSTHVIENIYLPAAQTMNSGTFNTTVDIKLKQWTDKQLPNKAVEVAWETLQEEFSRFMTEPKGKEHDDIFDKLKEAVKEESIKRHKWNDFAEDSLRVIQHNALEDRSISDKQQWDAAIYFMEEALQARLKDTENAIENMVGPDWKKRWLYWKNRTQEQCVHNETKNELEKMLKCNEEHPAYLASDEITTVRKNLESRGVEVDPSLIKDTWHQVYRRHFLKTALNHCNLCRRGFYYYQRHFVDSELECNDVVLFWRIQRMLAITANTLRQQLTNTEVRRLEKNVKEVLEDFAEDGEKKIKLLTGKRVQLAEDLKKVREIQEKLDAFIEALHQEK"}}, "target": "the molecule itself", "experiment": "SEC"}
{"protein": "B1", "values": [{"measurement": "stoichiometry N", "value": 2}]}
